Ends that are not written are not given here.
Legend:
[1] = Recovery of Aβ variants for elution from reversed-phase HPLC under different conditions; format: physicochemical
Source text: Senile plaques, which are one of the key pathological features of Alzheimer’s disease (AD), are composed of amyloid β peptides (Aβs) with a variety of secondary and tertiary structures because of post-translational modifications ([Saido et al, 1995], [1996]). This heterogeneity appears to affect catabolism and aggregation rates, resulting in structural changes in plaques. […] In contrast, transgenic (Tg) mice overexpressing human APP with pathogenic mutations primarily accumulate Aβ1-40 and Aβ1-42 ([Sturchler-Pierrat et al, 1997]; [Kawarabayashi et al, 2001]). […] There is, however, some discrepancy among different reports regarding the quantity of Aβ variants, which vary depending on the methods employed. […] However, the use of a heated (50°C) basic solvent containing betaine and limited proteolysis using lysyl endopeptidase allows full recovery in HPLC and detection by mass spectrometry, respectively.
Supplementary file : Table S1. Recovery of various Aβ variants for elution from reversed-phase HPLC under different conditions. TFA, trifluoroacetic acid; TEA, triethylamine.

Description for rat hippocampus: (A, B, C, D, E, F) Variants of ^3H/^14C-Aβx-42 were subjected to in vivo degradation and subsequent analysis as previously described ([Iwata et al, 2000]). Briefly, 0.5 μg Aβx-42 peptide dissolved in phosphate-buffered saline was unilaterally injected into the CA1 sector of the rat hippocampus and subjected to catabolism until the animals were euthanized by decapitation at the indicated time points. There was no contamination of the injection area by plasma or cerebrospinal fluid as immunohistochemically confirmed using anti-rat IgG. After extraction, the products were analyzed by reversed-phase HPLC connected to a flow scintillation monitor. The HPLC profiles in a ^14C mode at time 0 (red), 10 (blue), and 30/60 (black) minutes after the in vivo injection are shown. […] The major peaks at time 0 indicated by the arrows correspond to the intact substrates.
Digitized data of remaining amounts of intact Aβx-42 shown in Fig 1 were plotted, and then exponential approximation curves were drawn using Microsoft Excel. Each analysis of the in vivo catabolic rate of the Aβx-42 variant was carried out by independent experiments with more than five time points.
Male, 8–10-wk-old, Sprague Dawley rats used for in vivo analysis of metabolic rates of radiolabeled Aβx-42 peptides were obtained from Japan SLC. […] They were housed in plastic cages. […]

Substance | Half-life (in vivo half-lives of Aβx-42) (rat hippocampus) | Recovery for elution from reversed phase HPLC ([1]; solvent TEA/betaine (basic), temperature 50℃) | Recovery for elution from reversed phase HPLC ([1]; solvent TFA, temperature 20℃) | Recovery for elution from reversed phase HPLC ([1]; solvent TFA, temperature 50℃)
Aβ17L-42: Aβ17L-42 (p3 fragment), internally radiolabeled (LVFFAEDVGSNKGAIIGLMVGGVVIA; also: internally radiolabeled, site not given here; UniProt P05067 688-713, looked up, fragment) | 34.69 min | – | – | –
Aβ1-40: amyloid β peptide 1-40 | – | 100% | 100% | 100%
